Laboratory results: patent publication US8076452 (dated 2011)
Substitutions are numbered along the chain they refer to. Each block holds one binder with its values, some of them ahead of it.

Target: T1, streptavidin (UniProt P22629 37-163)
T1 construct: also called peroxidase-labeled streptavidin; streptavidin-Sepharose
Assay: SPR (BiacoreX, NTA chip), fusion protein immobilised, streptavidin injected
Description: The measurements of the dissociation constant were performed with a BiacoreX system and the sensor chip NTA of the company Biacore. The proteins generated during the expression described in Example 1 were investigated, i.e. FAB proteins, which had at the N terminus a peptide consisting of 15 amino acids as fusion partners and at the C terminus 6 histidines, which were needed for the immobilization on the sensor chip. The binding affinity of the proteins generated during the expression to streptavidin described in Example 1 was measured in the Biacore device according to manufacturer's instructions. The protein to be investigated is on the sensor chip, and a streptavidin solution having a defined concentration is sprayed in. The interaction (binding) between the two molecules is measured by the device and quantified as so-called resonance units (RU). For the measurement, the buffers specified by the manufacturer were used.

T1 sequence (P22629 37-163 limits assumed): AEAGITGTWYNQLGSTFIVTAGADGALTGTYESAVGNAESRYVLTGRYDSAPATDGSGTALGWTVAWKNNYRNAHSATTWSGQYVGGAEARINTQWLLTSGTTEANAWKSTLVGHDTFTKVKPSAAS

RU at 500 nM streptavidin: 786 RU
RU at 2 µM streptavidin: 946 RU
B1: FAB protein (FABP from bovine hearts) with N-terminal 15-amino-acid peptide motif 3 and C-terminal His-tag of 6 histidines (other)
chain: DVEAWLDERVPLVETFVGTWKLVDSKNFDDYMKSLGVGFATRQVGNMTKPTTIIEVNGDTVIIKTQSTFKNTEISFKLGVEFDETTADDRKVKSIVTLDGGKLVHVQKWNGQETSLVREMVDGKLILTLTHGTAVCTRTYEKQAHHHHHH

RU at 500 nM streptavidin: 478 RU
RU at 2 µM streptavidin: 644 RU
B2: FAB protein (FABP from bovine hearts) with N-terminal 15-amino-acid peptide motif 4 and C-terminal His-tag of 6 histidines (other)
chain: B1 chain with L6I, D7A, E8D, R9P, V10A, P11V, L12H, V13F, E14T

RU at 500 nM streptavidin: 62 RU
RU at 2 µM streptavidin: 233 RU
B3: FAB protein (FABP from bovine hearts) with N-terminal 15-amino-acid peptide motif 1 and C-terminal His-tag of 6 histidines (other)
chain: DLYDIDRNWVGHPQGFVGTWKLVDSKNFDDYMKSLGVGFATRQVGNMTKPTTIIEVNGDTVIIKTQSTFKNTEISFKLGVEFDETTADDRKVKSIVTLDGGKLVHVQKWNGQETSLVREMVDGKLILTLTHGTAVCTRTYEKQAHHHHHH
